# In the nanobody polyreactivity screen of Harvey et al. (2022):
# Experiment: yeast display, Sf9 membrane polyspecificity reagent, FACS + sequencing; frameworks hold sequencing errors
# Procedure, shortened: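 Sorting gates, low and high (top ~1%), were placed on anti-HA fluorescence to track expression and on streptavidin fluorescence to track reagent binding. A clone's polyreactivity label is taken from the gate it came out of. The reagent was 10% biotinylated, detergent-solubilized Sf9 membrane, applied for 1 hour at 4 °C to galactose-induced yeast display cells.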
row,Sequence,polyreactivity (PSR sort gate)
1,QVQLVESGGGLVQAGGSLRLSCAASGIIFGVNAMGWYRQAPGKERELVASITSGGSTNYADSVKGRFTISRDNAKNTVYLQMNSLKPEDTAVYYCNARWWAPGRPGDEINRILDYWGQGTQVTVSS,low polyreactivity
2,QVQLVESGGGLVQAGGSLRLSCAASGIIFGWYAMGWYRQAPGKERELVAAINWSGTSTYYADSVKGRFTISRDNAKNTVYLQMNSLKPEDPAVYYCAAYFQKLPTTGYEYWGQGTQVTVSS,low polyreactivity
3,QVQLVESGGGLVQAGGSLRLSCAASGIIFGYNAMGLYRQAHGKERELVASIDVSGGITYYADSVKGRFTISRDNAKNTVYLQMNSLKPEDTAVYYCAAAVYGRGSPHYYWGEGTQVTVSS,high polyreactivity
4,QVQLVESGGGLVQAGGSLRLSCAASGIIFGYNVMGWYRQAPGKERELVAAISGSGSSTYYADSVKGRFTISRDNAKNTVYLQMNSLKPEDTAVYYCARQRYEYRTTYYYWGQGTQVTVSS,high polyreactivity
5,QVQLVESGGGLVQAGGSLRLSCAASGIIFGYYAMGWYRQAPGKERELVAAINQDGSSTYYADSVKGRFTISRDNAKNTVYLQMNSLKPEDTAVYYCNARGVPRQDARMGYWGQGTQVTVSS,low polyreactivity
6,QVQLVESGGGLVQAGGSLRLSCAASGIIFGYYAMGWYRQAPGKERELVAAISSIGGSTYYADSVKGRFTISRDNAKNTVYLQMNSLKPEDTAVYYCNAASSRWPEYDYWGQGTQVTVSS,high polyreactivity
7,QVQLVESGGGLVQAGGSLRLSCAASGIIFHFNDMGWYRQAPGKERELVAAITSGGSTNYADSVKGRFTLSRDYAKKTVYLQMNSLKPEDTAVYYCNAEPPRGYTVSSGGEMDYWGQGTQVTVSS,low polyreactivity
8,QVQLVESGGGLVQAGGSLRLSCAASGIIFHKYAMGWYRQAPGTERELVAAISRSGGRTYYADSVKGRFTISRDNAKNTVYLQMNSLKPEDTAVYYCAARYLKPGGAYDSWGQGTQVTVSS,high polyreactivity
9,QVQLVESGGGLVQAGGSLRLSCAASGIIFHLYAMGWYRPAPGKERELVAAISWNGSSTYYADSVKGRFTISRDNAKNTVYLQMNSLKPEDTAVYYCAASYGYFEDYGYWGQGTQVTVSS,low polyreactivity
10,QVQLVESGGGLVQAGGSLRLSCAASGIIFHPYAMGWYRQAPGKERELVAVITWPGDSTYYADSVKGRFRISRDNAKNTVYLQMNSLKPEDTAVYYCNVDAWGTSGELPYDYWGQGTQVTVSS,low polyreactivity
11,QVQLVESGGGLVQAGGSLRLSCAASGIIFIGNAMGWYRQAPGKERELVAAISSDGDSTYYADSVKGRFTISRDNAKNTVYLQMNSLKPEDTAVYYCAKDYYPDYYGLYLWPFDYWGQGTQVTVSS,high polyreactivity
12,QVQLVESGGGLVQAGGSLRLSCAASGIIFIKYAMGWYRQAPGKERELVAAITSGGSTHYADSVKGRFTISRDNAKNTVYLQMNSLKPEETAVYYCNADILRHVAYFKDRYQAGSYWGQGTQVTVSS,low polyreactivity
13,QVQLVESGGGLVQAGGSLRLSCAASGIIFINYAMGWYRQAPGKERELVAAINSGGSTKYADSEKGRFTISRDNAKNTVYLLMNSLKPEDTAVYDCAAVPAGRYYWWLYYYWGQGTQVTVSS,high polyreactivity
14,QVQLVESGGGLVQAGGSLRLSCAASGIIFIPYAMGWYRQAPGKEREFVAAISSSGGSTYYADSVKGRFTISRDNAKNTVYLQMNSLKPEDTSVYYCAAQYVSRRYSRYNYWGQGTQVTVSS,high polyreactivity
15,QVQLVESGGGLVQAGGSLRLSCAASGIIFIPYAMGWYRQAPGKERELVASISKRGGRTYYADSVKGRFTISRDNAKNTVYLQMNSLKPEDTAVYYCAAYARYPVVYGVDYWGQGTQVTVSS,high polyreactivity
16,QVQLVESGGGLVQAGGSLRLSCAASGIIFIVNSMGWYRQAPGKERELVADISENGGDTYYADSVKGRFTISRDNAKNTVYLQMNSLKPEDSAVYYCAKSGEPYTRFDYWGQGTQVTVSS,low polyreactivity
17,QVQLVESGGGLVQAGGSLRLSCAASGIIFKLYAMGWYRQAPGKEREFVATITKTGGRTYYADSVKGRFTISRDNAKNTVYLQMNSLKPEDTAVYYCAARRVNGKMYYWGQGTQVTVSS,high polyreactivity
18,QVQLVESGGGLVQAGGSLRLSCAASGIIFKLYAMGWYRQAPGKERELVAAITYRGGTTYYADSVKGRFTISRDNAKNTVYLQMNSLKPEDTAVYYCAADNTFRDDYFLYYLFNYNYWGQGTQVTVSS,low polyreactivity
19,QVQLVESGGGLVQAGGSLRLSCAASGIIFKYNVMGWYRQAPGKERELVAAITDSGTSTFYADSVKGRFTISRDNAKNTVYLQMNSLKPEDTAVYYCAADEFSVFTIETYGYDYWGQGTQVTVSS,low polyreactivity
20,QVQLVESGGGLVQAGGSLRLSCAASGIIFKYYAMGSYRQAPGKERELVAAITRSGGSTYYADSVKGRFTISRDNAKNTVYLQMNSLKPVDTGVYYCAAQTGYSYGITWQFTKYNYWGQGTQVTVSS,low polyreactivity
21,QVQLVESGGGLVQAGGSLRLSCAASGIIFKYYAMGWYRQAPGKERELVAAISRSSGSTYYADSVKGRFTISRDNAKKTVYLQMNSLKPEDTAVYYCAASGWPQKYDYWGQGTQVTVSS,high polyreactivity
22,QVQLVESGGGLVQAGGSLRLSCAASGIIFKYYSKGWYRQAPGKERELVAAITSGGSTNYADSVKGRFTISRDNAKNTVYLQMNSLKPEDTAVYYCAKRFYYRNRFDYWGQGTQETVSS,low polyreactivity

row,Sequence,polyreactivity (PSR sort gate)
1,QVQLVESGGGLVQAGGSLRLSCAASGIIFLANAMGWYRQAPGKERELVAAISLDGGRTYYADSVKGRFTISRDNAKNTVFLQMNSLKPEDTAVYYCAADYGYVILYEYWGQGTQVTVSS,low polyreactivity
2,QVQLVESGGGLVQAGGSLRLSCAASGIIFLGYVMGWYRQAPGKERELVAAISSSGGRTYYADSVKGRFTISRDNAKNTVYLQMNSLKPEDTAVYYCATRTLQPGYTYPRYYWGQGTQVTVSS,high polyreactivity
3,QVQLVESGGGLVQAGGSLRLSCAASGIIFLNNAMGLYIQAPGKERELVAVISFIGDSTYYADSVKGRFTISRDNSKNSVYLQMNSLKPEDTAVYYCAADYYLPYWFFVGYDYWGQGTQVTVSS,low polyreactivity
4,QVQLVESGGGLVQAGGSLRLSCAASGIIFLTNAMGWYRQAPGTVRELVAAITAIGGSTYYADSVKGRFTISRDNAKNTVYLQMNSLKPEDTAVYYCAADCSYVYYLYDYWGQGTQVTVSS,low polyreactivity
5,QVQLVESGGGLVQAGGSLRLSCAASGIIFNLYAMGWYRQAPGKERELVAAISWSGGSTYYADSVKGRFTISRDNAKNTVYLQMNSLKPEDTAVYYCATSFLYPYFDEDDYWGQGTQVTVSS,high polyreactivity
6,QVQLVESGGGLVQAGGSLRLSCAASGIIFNWYAMGWYRQAPGKERELVAAISGSGDITYYADSVKGRFTISRDNAKNTVYLQMNSLKPEDTAVYYCAADPWTYWEDYDYWGQGTQVTVSS,low polyreactivity
7,QVQLVESGGGLVQAGGSLRLSCAASGIIFNWYAMGWYRQAPGKERELVAGISTSGGSTYYADSVKGRFTISRDNAKNTVYLQMNSLKPEDTAVYYCAAGRRGAWQYGYYYWGQGTQVTVSS,high polyreactivity
8,QVQLVESGGGLVQAGGSLRLSCAASGIIFNYNAMGWYRQAPGKERELVATISSGDSTNYADSVKGRFTISRDNAKNTVYLQMNSLKPEDTAVYYCAAESPSVFDGYAQLYIILEDYWGQGTQVTVSS,low polyreactivity
9,QVQLVESGGGLVQAGGSLRLSCAASGIIFPGYTMGWSRQAPGPEREVVAAISSGGRTNYADSVKGRFTISRDNAKNTVYLQMNSLKPEDTAVYYCAATRVASLGSPMYYCGQGTQVTVSS,high polyreactivity
10,QVQLVESGGGLVQAGGSLRLSCAASGIIFPGYVMGWYRQAPGKERELVAAISYSGGRTYYADSVKGRFTISRDNAKNTVYLQMNSLIPEDTAVYYCAARKSYFTSTDRYYGYYYHQSNYLGQGTQVTVSS,high polyreactivity
11,QVQLVESGGGLVQAGGSLRLSCAASGIIFPRNAMGWYRQAPWKERELVAGISRSGGSTSYADSVKGRFTFSRDNAKNTVYLQMNSLKPEDTAVFYCASRGHPFKKSYGSWGQGTQVTVSS,high polyreactivity
12,QVQLVESGGGLVQAGGSLRLSCAASGIIFPRYVMGWYRQAPGKERELVAAINRSGGSTYYADSVKGRFTISRDYAKNTVYLQMNSLKPEDTAVYYCAALDVRSYRGGYWGQGTQVTVSS,high polyreactivity
13,QVQLVESGGGLVQAGGSLRLSCAASGIIFPSYVMGWYRQAPGKERELVARISARGGRTYYADSVKGRFTISRDNAKNTVYLQMNSLKPEDTAVYYCAARWGITTWYDYWGQGTQVTVSS,high polyreactivity
14,QVQLVESGGGLVQAGGSLRLSCAASGIIFPVYTKGWYRQAPGKERELVAAISTSGGRTYYADSVKGRFTISRDNAKNTVYLQMNSLKPEYTAVYYCAAKRYTRKAGYYYWGQGTQVTVSS,high polyreactivity
15,QVQLVESGGGLVQAGGSLRLSCAASGIIFPYNVMGWYRQAPGKERELVAAITRGAASTYYADSVKGRFTISRDNAKNTVYLQMNSLKPEDTAVYYCNADGTWRTYNYWGQGTQVTVSS,high polyreactivity
16,QVQLVESGGGLVQAGGSLRLSCAASGIIFQYYAMGWYRQAPGKERELVAAINSGTTTYYADSVKGRFTITRDNAKNTVYLQMNSLKPEDTAVYYWNKDWHSQDFSAYNSYDYWGQGTQVTVSS,low polyreactivity
17,QVQLVESGGGLVQAGGSLRLSCAASGIIFRFYAMGWYRQAPGKERELVAAIRTSGGSTYYADSVKGRFTISRDNAKNTVYLQMNSLKPEDTAGYYCAARFYNGWTKHNYWGQGTQVTVSS,high polyreactivity
18,QVQLVESGGGLVQAGGSLRLSCAASGIIFRFYSMGWYRKEPGKERELVAAITSSGGSTYYADSEKGRFTISRDNAKNTVYLQMNSLKPEDSAVYYCATSTGPYRGRFYYWGQGTQVTGSS,high polyreactivity
19,QVQLVESGGGLVQAGGSLRLSCAASGIIFRGNAMGWYRQAPGKERELVAAISRSGRTNYADSVKGRFTISRDNAKNTVYLQMNSLKPEDTAVYYCAVDKRYGRVVGRDYDYWGQGTQVTVSS,high polyreactivity
20,QVQLVESGGGLVQAGGSLRLSCAASGIIFRGNSMGWYRQAPGKERELVAAIRFSGGSTYYADSVKGRFTISRDYAKNTVYLQMNSLKPEDTAVYYFAATRRRYGSTTSEYYYWGQGTQVTVSS,high polyreactivity
21,QVQLVESGGGLVQAGGSLRLSCAASGIIFRGYAMGWYRQAPGKERELVARISITGGRTYYADSVKGRFTISRDNAKNTVYLQMNSLKPEDTAVYYCAAGKYVRTVRYDYWGQGTQVTVSS,high polyreactivity
